From the supplement of paper PMC10567573

B1: SLC19A2 (parent)
chain: IYPVWTYSYLVLLFPVFLATDYLR
B2: MIA2 (parent)
chain: SVIEPVQESSFRSRKIAVEDENDL

Variants of: B1
Test: protein stability index of a GFP-peptide fusion (GPS, HEK-293T) (PSI 1-6); higher = more stable
Conditions: c terminus: a fixed tail appended
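Also: lentivirally expressed fusions sorted by FACS into six bins by GFP to DsRed ratio, PSI derived from sequencing read proportions per bin multiplied by bin number.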

Protein stability index: each site, then its substitutions
W5: C 3.27; K 4.35; A 3.28; I 4.83; G 4.5; Y 2.72; N 2.25; M 2.65; S 2.89; H 3.15; E 3.02; L 2.19; P 3.19; F 3.25; V 2.65; D 2.3; R 3.39
T6: R 2.39; M 2.95; K 3.04; N 3.48; H 3.42; E 2.71; A 2.63; Q 2.73; L 4.55; D 2.08; S 2.86; Y 3.51; V 2.9
S8: E 3.31; M 3.15; L 2.69; F 2.43; R 3.57; G 2.84; P 3.7; W 2.99; C 3.17; K 3.14; H 3.06; A 4.5; D 3.67; Q 3.59; I 2.41
V4: L 3.73; D 2.85; G 3.35; H 3.32; Y 2.91; K 2.96; I 3.46; E 3.43; T 3.3; Q 3.11; N 3.44; S 3.21; A 2.73; C 2.33; M 2.76; F 3.35
L10: D 4.06
P3: L 3.98; W 3.05; C 3.34; K 2.02; H 3.02; Y 2.94; G 3.79; S 3.26; A 3.47; E 2.5; N 2.57
Y9: N 3.02; C 4.17; H 2.97; I 3.67; K 2.81; V 3.11; E 2.2; F 1.75; D 3.8; L 2.46; Q 2.02; M 2.97; R 4.42; T 2.67
I1: R 1.87; N 2.98; S 2.54; V 4.95; H 4.44; G 2.67; L 3.49; Y 1.63; W 2.38; F 2.21; M 2.3; P 3.33; T 3.48; A 2.12
Y7: N 3.72; I 2.4; H 1.33; T 2.58; M 2.32; R 3.07; E 3.72; W 3.7; Q 2.58; F 2.84
Y2: A 3.21; T 4.06; L 2.15; F 3.09; D 2.77; K 2.44; H 2.29; G 1.97; W 3.59; P 2.62; S 2.56; M 3.15; E 2.56; I 4.61; Q 3.11; V 3.19

Variants of: B2
Test: as above
Conditions: c terminus: a fixed tail appended

Protein stability index: each site, then its substitutions
D23: A 5.26; V 5.1; L 4.63; T 4.71; S 5.2; E 5.54; R 5.07; P 4.28; K 4.95; N 5.1; H 4.95; C 4.39; I 4.64; W 3.86; F 3.65; Q 5.83; Y 4.24; M 4.82; G 4.72
L24: S 5.88; C 5.32; Q 5.51; V 5.82; N 5.67; A 5.43; P 5.42; G 5.75; E 5.67; W 4.73; I 4.66; D 5.26; F 5.19; K 5.12; T 5.57; Y 4.92; R 5.49; M 5.31; H 5
N22: Y 4.53; W 4.35
